Data as given in US20110086767A1, “MUTANTS OF GLYCOSIDE HYDROLASES AND USES THEREOF FOR SYNTHESIZING COMPLEX OLIGOSACCHARIDES AND DISACCHARIDE INTERMEDIATES” (Institut Pasteur, priority 2008, published 2011).

Tests used:
Type in all cases: biochemical
[1] = HPLC screening of the single-mutant amylosucrase library for glucosylation of D-GlcpNAc; details: acceptor D-GlcpNAc
Method: The protocol was established to enable the rapid identification of clones for which D-GlcpNAc glucosylation was improved. To obtain higher amounts of enzymes and facilitate detection of glucosylated compounds upon HPLC screening, mutants were produced in 96-DeepWell Format plates. Storage microplates containing monomutants were thawed and replicated to inoculate a starter culture in 96-well microplates containing, in each well, 150 μL LB medium supplemented with ampicillin (100 μg/mL). After growth for 24 h at 30° C. under agitation (200 rpm), plates were duplicated into 96-Deep Well plates containing, in each well, 1.1 mL LB medium supplemented with ampicillin (100 μg/mL) and IPTG (1 mM) to induce GST-AS expression. Cultures were then grown for 24 h at 30° C. under agitation (200 rpm). Plates were centrifuged (20 min, 3000 g, 4° C.) and the supernatant was removed. The cell pellet was resuspended in 200 μL of lysozyme (0.5 mg/mL), followed by freezing at −80° C. for 8 to 12 h. After thawing at room temperature, 100 μL of sucrose and 100 μL of acceptor (each at a final concentration of 73 mM) were added to each well. Enzymatic reaction was incubated at 30° C. during 24 h under agitation. The DeepWell plates were then centrifuged (20 min, 3000 g, 4° C.) and 300 μL of the supernatant was transferred to a filter micro-plate (PVDF 0.2 μm) to be clarified. […]
Efficiency of the glucosylation reaction was evaluated by HPLC analysis of the acceptor reaction product synthesized when using D-GlcpNAc as acceptor using a Dionex P 680 series pump, a Shodex RI 101 series refractometer, a Dionex UVD 340 UV/Vis detector and an autosampler HTC PAL. […]
For each of the 7 selected positions, 19 single mutants were generated (corresponding to each possible amino acid change). […] Both sucrose consumption and disaccharide formation were determined in order to calculate the glucosylation rate defined as the molar ratio of monoglucosylated acceptor versus/sucrose consumed.

[2] = Glucosylation of α-D-GlcpNAc-OAll by purified F290D, F290K and ASNPwt (146 mM sucrose + 146 mM acceptor)
Method: All assays were performed at 30° C. in 50 mM Tris buffer, pH=7.0. For the acceptor reactions, F290D, F290K and ASNPwt (1G5A) were tested on α-D-GlcpNAc-OAll.
(§1) Comparison of products synthesized by wild-type and AS variants. Reactions were performed in the presence of 146 mM sucrose alone or supplemented with 146 mM acceptor. The purified wild-type or mutated GST/AS were employed at 0.5 U/mL. The reactions were stopped by heating at 95° C. for 5 min. The final mixture was centrifuged at 18 000 g for 10 min, filtered on 0.22 μm membrane and analyzed by HPLC, as previously described.
(§2) Soluble and insoluble oligosaccharides produced during the reaction were identified by HPAEC using a Dionex Carbo-Pack PA100 column at 30° C. Before analysis, the insoluble fraction was solubilized in KOH at a final total sugar concentration of 10 g/kg. Mobile phase (150 mM NaOH) was set at 1 mL/min flow rate with a sodium acetate gradient (going from 6 to 500 mM within 120 min). Detection was performed using a Dionex ED40 module with a gold working electrode and an Ag/AgCl pH reference. Note that α-D-GlcpNAc-OAll (acceptor) and its derivatives are not oxidable products and thus are not detectable by HPAEC. Sucrose, glucose, fructose, α-D-GlcpNAc-OAll (acceptor) and its derivatives (glucosylation products) were quantified by HPLC, as previously described

[3] = Product profile with 146 mM sucrose alone (HPAEC); details: t=24 h
Method: as §1, §2

[4] = HPLC screening of double-mutant libraries for variants able to glucosylate D-GlcpNAc; details: α-D-Glcp-(1→4)-α-D-GlcpNAc (ED) from sucrose and D-GlcpNAc, microplate format
[5] = purified enzyme, Sucrose=Acceptor=146 mM, compared with ASNPwt

B1: F290K: single mutant F290K of N. polysaccharea amylosucrase 1G5A (protein)
chain: SPNSQYLKTRILDIYTPEQRAGIEKSEDWRQFSRRMDTHFPKLMNELDSVYGNNEALLPMLEMLLAQAWQSYSQRNSSLKDIDIARENNPDWILSNKQVGGVCYVDLFAGDLKGLKDKIPYFQELGLTYLHLMPLFKCPEGKSDGGYAVSSYRDVNPALGTIGDLREVIAALHEAGISAVVDFIFNHTSNEHEWAQRCAAGDPLFDNFYYIFPDRRMPDQYDRTLREIFPDQHPGGFSQLEDGRWVWTTFNSFQWDLNYSNPWVFRAMAGEMLFLANLGVDILRMDAVAKIWKQMGTSCENLPQAHALIRAFNAVMRIAAPAVFFKSEAIVHPDQVVQYIGQDECQIGYNPLQMALLWNTLATREVNLLHQALTYRHNLPEHTAWVNYVRSHDDIGWTFADEDAAYLGISGYDHRQFLNRFFVNRFDGSFARGVPFQYNPSTGDCRVSGTAAALVGLAQDDPHAVDRIKLLYSIALSTGGLPLIYLGDEVGTLNDDDWSQDSNKSDDSRWAHRPRYNEALYAQRNDPSTAAGQIYQDLRHMIAVRQSNPRFDGGRLVTFNTNNKHIIGYIRNNALLAFGNFSEYPQTVTAHTLQAMPFKAHDLIGGKTVSLNQDLTLQPYQVMWLEIA
[1]
  increase of glucosylation rate compared to the wild type: 45 fold
[2]; 146 mM sucrose supplemented with 146 mM α-D-GlcpNAc-OAll, t=24 h
  maltooligosaccharide formation on addition of acceptor: totally suppressed
[2]; [5]
  times more efficient for α-D-GlcpNAc-OAll glucosylation: 10 times
  times more efficient to form α-D-Glcp-(1→4)-D-GlcpNAc-OAll: 20 times
[3]
  length of maltooligosaccharides synthesized in the absence of acceptor: ≤ 20 DP
[4]; listed as DM4_P2_D12
  Glusosylation Yield to synthesize ED: 41%
[4]; listed as DM4_P2_H4
  Glusosylation Yield to synthesize ED: 42%
